Data on two molecules can be found in US20250216381A1.

Experiment [1] addresses KRAS G12V peptide on HLA-DRA*01:01 / HLA-DRB1*07:01 (human). Nature of the experiment: NFAT-luciferase; peptide titration in the Jurkat-NFAT and COS-7 system; full-length, on cells. To be noted: chains Valpha:Vbeta.
Experiment [2] concerns the target KRAS G12V presented by HLA-DRB1*07:01 (human), P01116. Description: cell-based or functional assay.

B1: 9976-TCR38-2 (protein)
chain 1: QSVTQLGSHVSVSEGALVLLRCNYSSSVPPYLFWYVQYPNQGLQLLLKYTTGATLVKGINGFEAEFKKSETSFHLTKPSAHMSDAAEYFCAVTEPGGYQKVTFGTGTKLQVIP
chain 2: AVVSQHPSRVICKSGTSVKIECRSLDFQATTMFWYRQFPKQSLMLMATSNEGSKATYEQGVEKDKFLINHASLTLSTLTVTSAHPEDSSFYICSATGQHAGANVLTFGAGSRLTVL
For B1, the lowest peptide concentration with reactivity in experiment [1] is under 1 ng/mL.

B2: 9976-TCR38-2 (TCR)
TCR alpha: AQSVTQLGSHVSVSEGALVLLRCNYSSSVPPYLFWYVQYPNQGLQLLLKYTTGATLVKGINGFEAEFKKSETSFHLTKPSAHMSDAAEYFCAVTEPGGYQKVTFGTGTKLQVIPNIQNPEPAVNIQNPEPAVYQLKDPRSQDSTLCLFTDFDSQINVPKTMESGTFITDKTVLDMKAMDSKSNGAIAWSNQTSFTCQDIFKETNATYPSSDVPCDATLTEKSFETDMNLNFQNLLVIVLRILLLKVAGFNLLMTLRLWSS
TCR beta: GAVVSQHPSRVICKSGTSVKIECRSLDFQATTMFWYRQFPKQSLMLMATSNEGSKATYEQGVEKDKFLINHASLTLSTLTVTSAHPEDSSFYICSATGQHAGANVLTFGAGSRLTVLEDLRNEDLRNVTPPKVSLFEPSKAEIANKQKATLVCLARGFFPDHVELSWWVNGKEVHSGVSTDPQAYKESNYSYCLSSRLRVSATFWHNPRNHFRCQVQFHGLSEEDKWPEGSPKPVTQNISAEAWGRADCGITSASYQQGVLSATILYEILLGKATLYAVLVSTLVVMAMVKRKNS
In turn, B2 had a peptide concentration at which reactivity is still seen (peptide titration, Jurkat-NFAT & COS-7 system) in experiment [2] of 1 ng/mL.
